This assay has as its target CD16 (Fc receptor on NK cells) (human) (UniProt P08637). The assay is described as follows: cell-based or functional assay.
Chain of UniProt P08637 (P08637 17-254): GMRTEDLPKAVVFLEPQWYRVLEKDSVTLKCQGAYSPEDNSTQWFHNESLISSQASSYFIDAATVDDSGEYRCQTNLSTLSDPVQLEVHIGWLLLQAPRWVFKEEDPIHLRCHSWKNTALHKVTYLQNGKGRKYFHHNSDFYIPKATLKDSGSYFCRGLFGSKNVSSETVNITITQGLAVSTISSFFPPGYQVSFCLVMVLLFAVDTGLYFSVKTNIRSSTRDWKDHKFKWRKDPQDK

As for rituximab (antibody), the % of CD69+ cells among total NK cells, 7-day CLL PBMC culture, RTX 10 ug/mL (untreated median 35.75%) is 65.2%; the median % of proliferating NK cells (CFSE dilution), 7-day CLL culture, antibody alone was 14.8%; the median % of proliferating NK cells (CFSE dilution), 7-day CLL culture, antibody plus IL-15 10 ng/mL (IL-15 alone 42.25%) was found to be 53.8%; the median % of viable CD19+/CD5+ B leukemic cells compared to untreated, 7 days, antibody alone came to 79.5%. Moreover, the median % of viable CD19+/CD5+ B leukemic cells compared to untreated, 7 days, antibody plus IL-15 10 ng/mL amounted to 50.4%.
